Molecular target: T1, TAP-tagged HMO1 (S. cerevisiae, UniProt Q03973 1-246)
T1 sequence: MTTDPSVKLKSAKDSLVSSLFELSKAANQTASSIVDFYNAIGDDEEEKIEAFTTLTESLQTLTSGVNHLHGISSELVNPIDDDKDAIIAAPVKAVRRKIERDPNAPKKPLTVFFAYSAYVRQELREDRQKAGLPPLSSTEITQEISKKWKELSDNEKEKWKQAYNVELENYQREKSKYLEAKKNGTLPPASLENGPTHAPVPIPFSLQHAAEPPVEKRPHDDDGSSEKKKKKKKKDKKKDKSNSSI
Assay: TAP purification with immunoblot

B1: TAF1 (natural protein)
chain: MVKQQGSGKTNLANEDEAYEAIFGGEFGSLEIGSYIGGDEGANSKDYTEHLPDAVDFEDEDELADDDDDLPEESDANLHPAMMTMGAYDDVNENGAVLGIDSNSLNMQLPEINGDLSQQFILEDDGGTPATSNALFMGMDANEIHLATETGVLDGSGANEIGHSQLSIGGVNGNDMSINGGFIMEPDMSDGKHKKATKLDLINHEKYLLKKYFPDFEKGKILKWNKLIYRRSVPYHWHSEISRVKKPFMPLNLKFKVQQDDKRLFNSRTISYVAPIYQGKNNLLQSNSSASRRGLIHVSIDELFPIKEQQKKRKIIHDEKTISEDLLIATDDWDQEKIINQGTSSTATLADSSMTPNLKFSGGYKLKSLIEDVAEDWQWDEDMIIDAKLKESKHAELNMNDEKLLLMIEKTNNLAQQKQQLDSSNLILPLNETILQQKFNLSNDDKYQILKKTHQTKVRSTISNLNIQHSQPAINLQSPFYKVAVPRYQLRHFHRENFGSHIRPGTKIVFSKLKARKRKRDKGKDVKESFSTSQDLTIGDTAPVYLMEYSEQTPVALSKFGMANKLINYYRKANEQDTLRPKLPVGETHVLGVQDKSPFWNFGFVEPGHIVPTLYNNMIRAPVFKHDISGTDFLLTKSSGFGISNRFYLRNINHLFTVGQTFPVEEIPGPNSRKVTSMKATRLKMIIYRILNHNHSKAISIDPIAKHFPDQDYGQNRQKVKEFMKYQRDGPEKGLWRLKDDEKLLDNEAVKSLITPEQISQVESMSQGLQFQEDNEAYNFDSKLKSLEENLLPWNITKNFINSTQMRAMIQIHGVGDPTGCGEGFSFLKTSMKGGFVKSGSPSSNNNSSNKKGTNTHSYNVAQQQKAYDEEIAKTWYTHTKSLSISNPFEEMTNPDEINQTNKHVKTDRDDKKILKIVRKKRDENGIIQRQTIFIRDPRVIQGYIKIKEQDKEDVNKLLEEDTSKINNLEELEKQKKLLQLELANLEKSQQRRAARQNSKRNGGATRTENSVDNGSDLAGVTDGKAARNKGKNTTRRCATCGQIGHIRTNKSCPMYSSKDNPASPK
percent recovered with HMO1-TAP: ~0.01%

B2: TAF11 (natural protein)
chain: MTEPQGPLDTIPKVNYPPILTIANYFSTKQMIDQVISEDQDYVTWKLQNLRTGGTSINNQLNKYPKYKYQKTRINQQDPDSINKVPENLIFPQDILQQQTQNSNYEDTNTNEDENEKLAQDEQFKLLVTNLDKDQTNRFEVFHRTSLNKTQVKKLASTVANQTISENIRVFLQAVGKIYAGEIIELAMIVKNKWLTSQMCIEFDKRTKIGYKLKKYLKKLTFSIIENQQYKQDYQSDSVPEDEPDFYFDDEEVDKRETTLGNSLLQSKSLQQSDHNSQDLKLQLIEQYNKLVLQFNKLDVSIEKYNNSPLLPEHIREAWRLYRLQSDTLPNAYWRTQGEGQGSMFR
percent recovered with HMO1-TAP: ~0.01%

From article PMC2275077 (Nucleic Acids Research, 2008)
